In patent US20240124586A1 (WUXI BIOLOGICS IRELAND, published 2024):

T1: Cynomolgus CD3 epsilon protein (W331-cynoPro1.ECD.His) (cynomolgus, UniProt Q95LI5 22-117)
T1 construct: extracellular domain; Bought protein; also called Acro #CDE-C5226
T1 sequence (looked up): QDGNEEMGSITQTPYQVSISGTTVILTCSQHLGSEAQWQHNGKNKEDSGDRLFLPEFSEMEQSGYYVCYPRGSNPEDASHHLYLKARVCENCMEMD

T2: cynomolgus CD19 on CHO-K1 cells (WBP701.CHO-K1.cpro1.FL.C9) (cynomolgus monkey, UniProt A0A2K5W8L9 20-557)
T2 construct: whole, on cells; also called cynomolgus-CD19 expressing cell; WBP701.CHOK1.cPro1.C9
T2 sequence: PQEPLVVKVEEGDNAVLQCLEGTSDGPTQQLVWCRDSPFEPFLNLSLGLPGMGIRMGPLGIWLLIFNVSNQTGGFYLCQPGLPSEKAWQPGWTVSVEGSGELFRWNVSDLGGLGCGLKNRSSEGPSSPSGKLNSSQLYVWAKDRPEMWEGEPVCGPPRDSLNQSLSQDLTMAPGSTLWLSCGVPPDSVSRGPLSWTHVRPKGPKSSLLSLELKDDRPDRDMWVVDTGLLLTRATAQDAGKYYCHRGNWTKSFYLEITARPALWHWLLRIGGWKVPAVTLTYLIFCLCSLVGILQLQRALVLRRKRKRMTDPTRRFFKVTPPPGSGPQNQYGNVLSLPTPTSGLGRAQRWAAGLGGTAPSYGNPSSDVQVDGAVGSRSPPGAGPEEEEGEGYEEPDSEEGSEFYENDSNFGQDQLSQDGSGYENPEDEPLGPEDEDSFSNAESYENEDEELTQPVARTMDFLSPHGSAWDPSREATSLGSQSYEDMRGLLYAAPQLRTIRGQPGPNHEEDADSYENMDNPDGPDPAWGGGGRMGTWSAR

T3: FcγRIIa (H167) (UniProt P12318 36-218, limits assumed)
T3 sequence (looked up): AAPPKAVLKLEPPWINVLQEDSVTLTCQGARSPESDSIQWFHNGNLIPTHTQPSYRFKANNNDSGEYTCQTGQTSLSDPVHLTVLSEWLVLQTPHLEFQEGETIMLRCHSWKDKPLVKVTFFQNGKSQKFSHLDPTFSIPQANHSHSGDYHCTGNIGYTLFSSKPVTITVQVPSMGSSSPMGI

T4: FcγRIIb (UniProt P31994 46-217, limits assumed)
T4 sequence (looked up): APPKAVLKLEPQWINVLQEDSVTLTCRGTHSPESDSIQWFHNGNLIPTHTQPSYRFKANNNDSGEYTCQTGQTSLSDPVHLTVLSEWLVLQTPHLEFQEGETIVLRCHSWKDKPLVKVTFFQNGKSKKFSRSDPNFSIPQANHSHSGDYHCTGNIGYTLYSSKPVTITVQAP


Columns and labels:
[1] = target: T1, Cynomolgus CD3 epsilon protein …; test: ELISA, cynomolgus CD3 epsilon protein coated
Experimental: The binding of the CD3×CD19 bispecific antibody to Cynomolgus CD3 were tested by protein binding ELISA. […] All wells were washed one time with 300 μL per well of PBS/0.5‰ Tween-20 (v/v). The wells were then blocked for one hour at room temperature with 200 μL per well of PBS/2% BSA (BOVOGEN, #BSAS) and washed three times with 300 μL per well of PBS/0.5‰ Tween-20 (v/v). For the primary antibody binding, CD3×CD19 bispecific antibody serially diluted in PBS/2% BSA were added to the relevant wells and incubated at room temperature for two hours. […] Plates were incubated at room temperature for one hour, followed by six washes as described above. […] The extent of bispecific antibody binding to Cynomolgus CD3 was determined by measuring the OD450 absorbance using the SpectraMax® M5e microplate reader. Wherever appropriate, binding EC50 values were obtained by the four-parameter non-linear regression analysis using GraphPad Prism5 software.

[2] = target: T2, cynomolgus CD19 on CHO-K1 cells …; test: flow cytometry on cynomolgus CD19 CHO-K1 cells
Experimental: Binding of the CD3×CD19 bispecific antibody to Cynomolgus CD19 target protein expressed on CHOK1 cells was determined by flow cytometry analysis. In brief, cynomolgus CD19 over-expressed stable cell line (WBP701.CHOK1.cPro1.C9, WuXi Biologics) were harvested with trypsin and diluted to 1×10⁶ cells/ml in 1% BSA/1×PBS. […] Antibodies serially diluted in 1% BSA/1×PBS were added at 100 ul/well to the pelleted cells and incubated at 4° C. for 1 hour. […] Cells were washed two times with 180 ul/well of 1% BSA/1×PBS by centrifugation at 1500 rpm for 5 minutes at 4° C. […] Cells were then washed two times as described above. After the final wash, cells were resuspended in 80 ul 1% BSA/1×PBS and fluorescence values were measured with a FACS Canto II cytometer (BD Biosciences). The amount of cell surface bound anti-CD19&CD3 bispecific antibody was assessed by measuring the mean fluorescence (MFI). The FACS raw data were analyzed by FlowJo software, wells containing no antibody or secondary antibody only were used to establish background fluorescence. Binding EC50 values were obtained by the four-parameter non-linear regression analysis using GraphPad Prism 5 software.

FcγRI = target: T5, FcγRI (UniProt P12314 16-288, limits assumed); test: SPR (Biacore), receptor captured on anti-his chip, 1:1 model
T5 construct: His-tagged by the capture method
T5 sequence (P12314 16-288 limits assumed): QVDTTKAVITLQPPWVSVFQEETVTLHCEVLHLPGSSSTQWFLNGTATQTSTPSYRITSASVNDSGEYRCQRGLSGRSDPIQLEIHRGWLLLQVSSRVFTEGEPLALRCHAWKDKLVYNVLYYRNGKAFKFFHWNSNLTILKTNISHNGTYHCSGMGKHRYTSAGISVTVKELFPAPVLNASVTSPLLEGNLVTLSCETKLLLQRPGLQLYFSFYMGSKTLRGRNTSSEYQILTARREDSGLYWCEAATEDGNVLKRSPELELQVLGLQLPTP
Experimental: (§1) Antibody binding affinity to FcγRs was detected using Biacore T200 (or Biacore 8K). Each receptor was captured on an anti-his antibody immobilized CM5 sensor chip (GE). Antibodies at different concentrations were injected over the sensor chip at a flow rate of 30 uL/min for an association phase of 60 s, followed by 60 s dissociation. The chip was then regenerated by 10 mM glycine (pH 1.5) after each binding cycle.
(§2) The sensorgrams of blank surface and buffer channel were subtracted from the test sensorgrams. The experimental data was fitted by 1:1 model using Langmiur analysis (for FcγRI) or steady state model (for other receptors). A molecular weight of 150 KDa was used to calculate the molar concentration of antibodies.

[3] = target: T6, human CD3 on CD3+ Jurkat cells (human, UniProt P07766 23-207; P09693 23-182; P04234 22-171); test: affinity by flow cytometry on Jurkat cells (bound/free versus bound)
T6 construct: whole, on cells; also called CD3 positive Jurkat cells
T6 sequence (P07766 23-207, chain 1 of 3): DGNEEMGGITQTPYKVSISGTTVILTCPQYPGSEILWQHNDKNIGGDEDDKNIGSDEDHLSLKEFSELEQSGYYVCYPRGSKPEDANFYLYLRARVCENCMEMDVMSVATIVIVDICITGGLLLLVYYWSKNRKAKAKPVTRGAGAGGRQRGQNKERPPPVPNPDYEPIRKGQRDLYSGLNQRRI
T6 sequence (P09693 23-182, chain 2 of 3): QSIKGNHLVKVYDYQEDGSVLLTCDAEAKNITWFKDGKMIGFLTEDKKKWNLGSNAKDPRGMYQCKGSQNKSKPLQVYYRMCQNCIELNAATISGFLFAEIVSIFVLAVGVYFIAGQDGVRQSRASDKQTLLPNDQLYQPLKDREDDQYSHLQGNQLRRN
T6 sequence (P04234 22-171, chain 3 of 3): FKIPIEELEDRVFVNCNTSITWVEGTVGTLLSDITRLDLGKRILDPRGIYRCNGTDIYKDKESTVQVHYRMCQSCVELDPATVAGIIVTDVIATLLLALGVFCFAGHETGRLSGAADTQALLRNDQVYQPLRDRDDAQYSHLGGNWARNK
Experimental: Binding affinity to CD3 and CD19 was determined by flow cytometry using Jurkat and Ramos cells, respectively. The cells were transferred in to 96-well U-bottom plates (BD) at a density of 5×10⁴ cells/well. Antibodies to be tested were 1:2-fold serially diluted in 1% 1×PBS/1% BSA and incubated with cells at 4° C. for 1 hr. Then, the plates were centrifuged at 1500 rpm for 4 mins and the supernatant discarded. […] The cells were washed once and re-suspended in 100 μL 1×PBS/1% BSA. Fluorescence intensity was measured by flow cytometry (BD Canto II) and analyzed by FlowJo. Fluorescence intensity was converted to bound molecules/cell based on the quantitative beads (Quantum™ MESF Kits, Bangs Laboratories). KD was calculated by Graphpad Prism5.
The bound IgG/free IgG versus bound IgG was plotted in FIGS. 46A and 46B.

FcγRIIa (H167) = target: T3, FcγRIIa (H167); test: SPR (Biacore), receptor captured on anti-his chip, steady state model
Experimental: as §1, §2

FcγRIIb = target: T4, FcγRIIb; test: as above
Experimental: as §1, §2

FcγRIIIa (F176) = FcγRIIIa (F176) (UniProt P08637 17-208); test: as above
FcγRIIIa (F176), sequence (P08637 17-208 limits assumed): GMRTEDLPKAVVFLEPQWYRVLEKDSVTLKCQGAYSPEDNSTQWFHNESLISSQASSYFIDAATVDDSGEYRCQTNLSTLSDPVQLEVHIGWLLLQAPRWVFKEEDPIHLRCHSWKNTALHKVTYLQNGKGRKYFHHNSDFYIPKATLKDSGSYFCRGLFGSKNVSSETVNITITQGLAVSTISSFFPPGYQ
Experimental: as §1, §2

FcγRIIIa (V176) = FcγRIIIa (V176) (UniProt P08637 17-208); test: as above
FcγRIIIa (V176), sequence (P08637 17-208 F176V limits assumed): as the sequence (P08637 17-208 limits assumed) above, with F160V counted along it
Experimental: as §1, §2

[4] = target: T7, biotinylated human CTLA-4.ECD.hFc (W316-hPro1.ECD.hFc.Biotin) (human, UniProt P16410 36-161, biotin-labelled (site not stated)); test: competitive FACS, biotinylated CTLA-4.ECD.hFc on human CD80 CHO-K1 cells (competitor: CD80)
T7 construct: extracellular domain; In-house protein; also called hCTLA-4.ECD.hFc-Biotin; human CTLA-4 protein
T7 sequence (P16410 36-161): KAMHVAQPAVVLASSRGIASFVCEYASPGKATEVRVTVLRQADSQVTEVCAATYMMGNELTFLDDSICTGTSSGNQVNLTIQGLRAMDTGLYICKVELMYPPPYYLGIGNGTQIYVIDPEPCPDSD
Experimental: (§3) Competitive FACS was used to test whether the antibodies could block human or cynomolgus CTLA-4 binding to hCD80 on cell surface. […] Then the mixtures of antibody and CTLA-4 were added to the cells and incubated for 1 hour at 4° C. The cells were washed two times with 200 μl FACS washing buffer (DPBS containing 1% BSA). Streptavidin PE (BD Pharmingen-554061) 1 to 600 diluted in FACS buffer was added to the cells and incubated at 4° C. for 1 hour. Additional washing steps were performed two times with 200 μL FACS washing buffer followed by centrifugation at 1500 rpm for 4 minutes at 4° C. Finally, the cells were resuspended in 100 μL FACS washing buffer and fluorescence values were measured by flow cytometry and analyzed by FlowJo.

[5] = target: cynomolgus CTLA-4 protein (cynomolgus, UniProt G7PL88 36-161, Probably biotinylated for streptavidin-PE detection, as described for the human CTLA-4 reagent in paragraph 775; the letters cannot carry this.); test: FACS competition: blocks cynomolgus CTLA-4 protein binding to human CD80 engineered cells
cynomolgus CTLA-4 protein, sequence (G7PL88 entry or part of it limits assumed): as the sequence (P16410 36-161) above, with S14N, I18T, L106M counted along it
Experimental: as §3

Row | EC50 [1] | EC50 [2] | Kd (FcγRI) | Kd [3] | Kd (FcγRIIa (H167)) | Kd (FcγRIIb) | Kd (FcγRIIIa (F176)) | Kd (FcγRIIIa (V176)) | IC50 [4] | IC50 [5] | Binder
1 | 0.04 nM | 26 nM | 9.79 nM | 9 nM | 20500 nM | 24100 nM | 29300 nM | 14000 nM |  |  | W3438-T3U4.E17-1.uIgG4.SP, bispecific anti-CD3 x CD19 (bispecific antibody, also called E17-Design_2-QQQQ (IgG4); E17-IgG4; copies: 1 + 1 + 1 + 1) heavy 1: QVQLVQSGAEVKKPGSSVKVSCKASGFAFTDYYIHWVRQAPGQGLEWMGWISPGNVNTKYNENFKGRVTITADKSTSTAYMELSSLRSEDTAVYYCARDGYSLYYFDYWGQGTLVTVLEDLKNVFPPEVAVFEPSEAEISHTQKATLVCLATGFYPDHVELSWWVNGKEVHSGVCTDPQPLKEQPALQDSRYALSSRLRVSATFWQNPRNHFRCQVQFYGLSENDEWTQDRAKPVTQIVSAEAWGRYGPPCPPCPAPEFLGGPSVFLFPPKPKDTLMISRTPEVTCVVVDVSQEDPEVQFNWYVDGVEVHNAKTKPREEQFNSTYRVVSVLTVLHQDWLNGKEYKCKVSNKGLPSSIEKTISKAKGQPREPQVYTLPPCQEEMTKNQVSLWCLVKGFYPSDIAVEWESNGQPENNYKTTPPVLDSDGSFFLYSRLTVDKSRWQEGNVFSCSVMHEALHNHYTQKSLSLSLGK light 1: DIVMTQSPDSLAVSLGERATINCKSSQSLLNSRTRKNYLAWYQQKPGQPPKLLIYWASTRQSGVPDRFSGSGSGTDFTLTISSLQAEDVAVYYCTQSHTLRTFGGGTKVEIKPDIQNPDPAVYQLRDSKSSDKSVCLFTDFDSQTQVSQSKDSDVYITDKCVLDMRSMDFKSNSAVAWSQKSDFACANAFQNSIIPEDTFFPSPESS heavy 2: QMQLVQSGPEVKKPGTSVKVSCKASGYAFTSYNMYWVRQARGQRLEWIGYIDPYNGDTTYNQKFKGRVTITRDMSTSTAYMELSSLRSEDTAVYYCLTTAYAMDYWGQGTLVTVSSASTKGPSVFPLAPCSRSTSESTAALGCLVKDYFPEPVTVSWNSGALTSGVHTFPAVLQSSGLYSLSSVVTVPSSSLGTKTYTCNVDHKPSNTKVDKRVESKYGPPCPPCPAPEFLGGPSVFLFPPKPKDTLMISRTPEVTCVVVDVSQEDPEVQFNWYVDGVEVHNAKTKPREEQFNSTYRVVSVLTVLHQDWLNGKEYKCKVSNKGLPSSIEKTISKAKGQPREPQVCTLPPSQEEMTKNQVSLSCAVKGFYPSDIAVEWESNGQPENNYKTTPPVLDSDGSFFLVSRLTVDKSRWQEGNVFSCSVMHEALHNHYTQKSLSLSLGK light 2: DIQLTQSPSFLSASVGDRVTITCSASSTVNYMHWYQQKPGKAPKLLIYSTSNLASGVPSRFSGSGSGTEFTLTISSLQPEDFATYYCHQWSSYPYTFGQGTKLEIKRTVAAPSVFIFPPSDEQLKSGTASVVCLLNNFYPREAKVQWKVDNALQSGNSQESVTEQDSKDSTYSLSSTLTLSKADYEKHKVYACEVTHQGLSSPVTKSFNRGEC
2 |  |  |  |  |  |  |  |  | 0.758 nM | 2.14 nM | W3248-U6T5.G25-1.uIgG4.SP, bispecific anti-PD-1 x CTLA-4 (bispecific antibody, IgG4 (S228P); also called WBP3248-U6T5.G25-1-uIgG4.SP; U6T5.G25.IgG4) heavy: not shown light 1: SYELTQPLSVSVALGQTARITCGGDNIGNKDVHWYQQKPGQAPVLVIYRDSNRPSGIPEGFSGSNSGNTATLTISRAQAGDEADYYCQVWDSIWVFGGGTKLTVLPDIQNPDPAVYQLRDSKSSDKSVCLFTDFDSQTQVSQSKDSDVYITDKCVLDMRSMDFKSNSAVAWSQKSDFACANAFQNSIIPEDTFFPSPESS light 2: EIVLTQSPDFQSVTPKEKVTITCSANSALSYMYWYQQKPDQSPKLWVHGTSNLASGVPSRFSGSGSGTDFTLTINSLEAEDAATYYCHHWSNTQWTFGGGTKVEIKRTVAAPSVFIFPPSDEQLKSGTASVVCLLNNFYPREAKVQWKVDNALQSGNSQESVTEQDSKDSTYSLSSTLTLSKADYEKHKVYACEVTHQGLSSPVTKSFNRGEC
